This data set has as its system CN(CC(=O)O)C(=N)NP(=O)(O)O. As to the kind of experiment: Compound was tested for inhibition against Creatine kinase(CK). As to conditions: Oryctolagus cuniculus.

Creatine kinase M-type (Homo sapiens), P06732, sequence (P06732 whole entry): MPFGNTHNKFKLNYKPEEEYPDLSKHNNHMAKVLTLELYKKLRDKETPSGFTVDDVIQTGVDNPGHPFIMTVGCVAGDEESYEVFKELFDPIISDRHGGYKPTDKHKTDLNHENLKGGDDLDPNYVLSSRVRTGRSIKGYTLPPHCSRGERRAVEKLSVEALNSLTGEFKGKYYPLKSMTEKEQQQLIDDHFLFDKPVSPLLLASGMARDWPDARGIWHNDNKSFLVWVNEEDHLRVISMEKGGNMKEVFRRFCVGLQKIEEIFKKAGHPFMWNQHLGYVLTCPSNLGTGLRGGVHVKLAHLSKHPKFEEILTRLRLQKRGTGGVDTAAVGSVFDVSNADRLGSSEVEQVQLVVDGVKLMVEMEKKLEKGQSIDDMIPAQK

Take “Creatine kinase M-type (Homo sapiens), P06732”: the Km came to 2500 µM.

By Km is commonly meant the substrate concentration at which the rate is half of its maximum.

(Values after ChEMBL document CHEMBL1150442, “Synthesis and creatine kinase inhibitory activity of non-hydrolyzable analogs of phosphocreatine” (Bioorg Med Chem Lett, 1997).)
